From paper PMC8538406

Target: CCR7-FKBP (DmrA) receptor chimaera, CCR7-M

- Matrigel transwell invasion of co-transfected MDA-MB-231 cells with ACH (AP21967), towards CCL19 and CXCL12 together: > 50%
Substance: CXCR4-FRB (DmrC) receptor chimaera, CXCR4-H
